The values below come from patent US20140087995A1 (published 2014).

Numbered stars: 1 amine (or outer) side, 2 acyl side, 3 side chain; on linkers, the order of the positions; unused ones are H or OH. Bridge positions count the residues as written; N and C are the ends. Side chains are listed from the residue outwards. Ends that are not written are not given here. * marks the point of attachment. C20 diacid = O=C(O)CCCCCCCCCCCCCCCCCCC(=O)*; γGlu = O=C(O)[C@H](CCC(=O)[*:2])N[*:1]; AEEA = NCCOCCOCC(=O)O

The target in assay [1] is T1, rat calcitonin receptor (rat, UniProt P32214 25-516).
T1 construct: whole, on cells; membranes of transiently transfected BHK tk'ts 13 cells (Assay VIII); also called rCTR; rat calcitonin (a) receptor
T1 sequence (looked up): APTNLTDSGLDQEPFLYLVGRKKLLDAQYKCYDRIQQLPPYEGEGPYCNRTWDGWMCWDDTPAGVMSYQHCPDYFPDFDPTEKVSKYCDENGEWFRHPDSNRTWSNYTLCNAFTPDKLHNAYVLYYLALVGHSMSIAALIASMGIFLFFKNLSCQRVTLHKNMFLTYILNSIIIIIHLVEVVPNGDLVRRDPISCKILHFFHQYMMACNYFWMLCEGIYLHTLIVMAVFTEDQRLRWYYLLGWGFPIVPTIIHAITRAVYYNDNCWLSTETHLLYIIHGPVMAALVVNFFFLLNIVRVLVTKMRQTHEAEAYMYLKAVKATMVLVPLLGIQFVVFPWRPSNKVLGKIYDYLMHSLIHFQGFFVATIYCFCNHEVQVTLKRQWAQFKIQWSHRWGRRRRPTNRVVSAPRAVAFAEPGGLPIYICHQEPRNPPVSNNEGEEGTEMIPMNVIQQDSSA
Kind of assay: IC50 on rat calcitonin receptor divided by IC50 on rat amylin receptor (SPA competition).

For assay [2], the target named is T2, human calcitonin receptor (human, UniProt P30988 25-474).
T2 construct: whole, on cells; membranes of stably transfected BHK cells (Assay VII); also called hCTR; hCT
T2 sequence (looked up): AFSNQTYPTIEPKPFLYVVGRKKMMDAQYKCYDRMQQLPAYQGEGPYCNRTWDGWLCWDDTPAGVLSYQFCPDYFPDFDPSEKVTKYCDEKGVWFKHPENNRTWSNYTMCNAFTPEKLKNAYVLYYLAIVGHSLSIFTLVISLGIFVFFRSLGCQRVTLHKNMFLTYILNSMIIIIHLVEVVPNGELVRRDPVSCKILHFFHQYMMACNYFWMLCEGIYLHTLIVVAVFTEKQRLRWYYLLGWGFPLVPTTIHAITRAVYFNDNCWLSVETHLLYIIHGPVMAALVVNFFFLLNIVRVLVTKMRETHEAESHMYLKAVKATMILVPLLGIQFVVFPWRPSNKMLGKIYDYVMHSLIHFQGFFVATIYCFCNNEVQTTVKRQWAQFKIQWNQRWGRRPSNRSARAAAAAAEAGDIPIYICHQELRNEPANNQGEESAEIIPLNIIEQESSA
As to the kind of experiment: IC50 on human calcitonin receptor divided by IC50 on human amylin receptor (SPA competition). The method in brief: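 Competition binding by SPA with cell membranes (35 ng/μL) and SPA beads in 50 mM Hepes pH 7.4 with 1 mM CaCl2, 5 mM MgCl2, 0.1% OA and 0.02% Tween20. Incubated 120 min at 25 °C with shaking, then counted.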

Assay [3] concerns the target T1, rat calcitonin receptor. Kind of assay: SPA competition with 125I-calcitonin, membranes of BHK cells with rat calcitonin receptor (Assay VIII).
Assay [4] deals with T3, rat amylin receptor (rat calcitonin receptor + rat RAMP 3) (rat, UniProt P32214 25-516; Q9JJ73 23-147).
T3 construct: whole, on cells; membranes of transiently transfected BHK tk'ts 13 cells (Assay VI); also called rAmylin-R; rat amylin 3(a) receptor
T3 sequence (looked up) 1: T1 sequence (looked up)
T3 sequence (looked up) 2: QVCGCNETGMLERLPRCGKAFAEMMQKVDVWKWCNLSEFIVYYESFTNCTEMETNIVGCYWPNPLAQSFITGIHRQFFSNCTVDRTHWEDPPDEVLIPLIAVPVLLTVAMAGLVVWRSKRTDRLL
As to the kind of experiment: SPA competition with 125I-rat amylin, membranes of BHK cells with rat calcitonin receptor + rat RAMP3 (Assay VI).

B1: N^ε-[2-[2-[2-[[(4S)-4-carboxy-4-(19-carboxynonadecanoylamino)butanoyl]amino]ethoxy]ethoxy]acetyl]Lys[Arg1,Arg17,Pro21,Pro27,His35]-h-amylin (peptide)
peptide: K([AEEA-γGlu-C20 diacid])RCNTATCATQRLANFLRHSSPNFGAIPSSTNVGSHTY-NH2
modifications: disulfide 3-8 (inferred)
notes: analogue of human amylin extended by Lys at the N-terminus; also called compound 45
For the molecule B1, the “Ratio rCT/rAmylin binding” value in the assay with rat calcitonin receptor [1] worked out at 67.1. Also, in assay [2], the “Ratio hCT/hAmylin binding” value was determined as 26.8. The IC50 was determined as 41.8 nM in the assay with rat calcitonin receptor [3] and 0.623 nM in assay [4].

B2: N^ε1-[2-[2-[2-[[(4S)-4-carboxy-4-(19-carboxynonadecanoylamino)butanoyl]amino]ethoxy]ethoxy]acetyl]-[Arg17,Pro21,Pro27]-h-amylin (peptide)
peptide: K([AEEA-γGlu-C20 diacid])CNTATCATQRLANFLRHSSPNFGAIPSSTNVGSNTY-NH2
modifications: disulfide 2-7 (inferred)
notes: analogue of human amylin; also called compound 41
For the molecule B2, the “Ratio rCT/rAmylin binding” value in the assay with rat calcitonin receptor [1] amounted to 54. For the same molecule, the “Ratio hCT/hAmylin binding” value in assay [2] was 49.9. Further, the IC50 in the assay with rat calcitonin receptor [3] turned out to be 74.1 nM; in assay [4], 1.37 nM.

B3: N^ε1-[2-[2-[2-(19-carboxynonadecanoylamino)ethoxy]ethoxy]acetyl]-[Arg17,Pro21,Pro27]-h-amylin (peptide)
peptide: K([AEEA-C20 diacid])CNTATCATQRLANFLRHSSPNFGAIPSSTNVGSNTY-NH2
modifications: disulfide 2-7 (inferred)
notes: analogue of human amylin; also called compound 43
Turning to B3, the “Ratio rCT/rAmylin binding” value in the assay with rat calcitonin receptor [1] stood at 69.1. The “Ratio hCT/hAmylin binding” value in assay [2] is 34.7. Further, the IC50 with rat calcitonin receptor [3] was found to be 7.6 nM; in assay [4], 0.11 nM.

B4: N^ε1-19-carboxynonadecanoyl-[Arg17,Pro21,Pro27]-h-amylin (peptide)
peptide: K(C20 diacid)CNTATCATQRLANFLRHSSPNFGAIPSSTNVGSNTY-NH2
modifications: disulfide 2-7 (inferred)
notes: analogue of human amylin; also called compound 42
For B4, in the assay with rat calcitonin receptor [1], the “Ratio rCT/rAmylin binding” value was 25.4. Further, the “Ratio hCT/hAmylin binding” value in assay [2] was found to be 30.7. In addition, the figures for the half-inhibitory concentration (IC50) (with rat calcitonin receptor [3]; in assay [4]) were 15.3 nM and 0.603 nM, respectively.

B5: N^α1-[2-[2-[2-[[2-[2-[2-[[(4S)-4-carboxy-4-(19-carboxynonadecanoylamino)butanoyl]amino]ethoxy]ethoxy]acetyl]amino]ethoxy]ethoxy]acetyl]-[Arg17,Pro21,Pro27]-h-am … (peptide)
peptide: KCNTATCATQRLANFLRHSSPNFGAIPSSTNVGSNTY
modifications: C20 diacid-gGlu-2xOEG on the alpha amino group of the N-terminal residue (Lys 1); disulfide bridge between the two Cys residues; C-terminal amide
notes: analogue of human amylin; also called compound 24
Turning to B5, in the assay with rat calcitonin receptor [1], the “Ratio rCT/rAmylin binding” value worked out at 116. Moreover, the “Ratio hCT/hAmylin binding” value in assay [2] came to 90. Besides, the half-inhibitory concentration (IC50) in the assay with rat calcitonin receptor [3] stood at 350 nM; in assay [4], 3.01 nM.

B6: N^ε1-[(4S)-4-carboxy-4-(19-carboxynonadecanoylamino)butanoyl]-[Arg17,Pro21,Pro27,Glu35]-h-amylin (peptide)
peptide: K([γGlu-C20 diacid])CNTATCATQRLANFLRHSSPNFGAIPSSTNVGSETY-NH2
modifications: disulfide 2-7; N-terminus assumed
SMILES: CC[C@H](C)[C@H](NC(=O)[C@H](C)NC(=O)CNC(=O)[C@H](Cc1ccccc1)NC(=O)[C@H](CC(N)=O)NC(=O)[C@@H]1CCCN1C(=O)[C@H](CO)NC(=O)[C@H](CO)NC(=O)[C@H](Cc1c[nH]cn1)NC(=O)[C@H](CCCNC(=N)N)NC(=O)[C@H](CC(C)C)NC(=O)[C@H](Cc1ccccc1)NC(=O)[C@H](CC(N)=O)NC(=O)[C@H](C)NC(=O)[C@H](CC(C)C)NC(=O)[C@H](CCCNC(=N)N)NC(=O)[C@H](CCC(N)=O)NC(=O)[C@@H](NC(=O)[C@H](C)NC(=O)[C@@H]1CSSC[C@H](NC(=O)[C@@H](N)CCCCNC(=O)CC[C@H](NC(=O)CCCCCCCCCCCCCCCCCCC(=O)O)C(=O)O)C(=O)N[C@@H](CC(N)=O)C(=O)N[C@@H]([C@@H](C)O)C(=O)N[C@@H](C)C(=O)N[C@@H]([C@@H](C)O)C(=O)N1)[C@@H](C)O)C(=O)N1CCC[C@H]1C(=O)N[C@@H](CO)C(=O)N[C@@H](CO)C(=O)N[C@H](C(=O)N[C@@H](CC(N)=O)C(=O)N[C@H](C(=O)NCC(=O)N[C@@H](CO)C(=O)N[C@@H](CCC(=O)O)C(=O)N[C@H](C(=O)N[C@@H](Cc1ccc(O)cc1)C(N)=O)[C@@H](C)O)C(C)C)[C@@H](C)O
notes: analogue of human amylin; also called compound 27
In the case of B6, the “Ratio rCT/rAmylin binding” value with rat calcitonin receptor [1] was 147. The “Ratio hCT/hAmylin binding” value in assay [2] came out at 41.3. The values for the IC50 (with rat calcitonin receptor [3]; in assay [4]) were 90.2 nM and 0.614 nM, respectively.

B7: N^ε1-[(4S)-4-carboxy-4-(19-carboxynonadecanoylamino)butanoyl]-[Glu14,Arg17,Pro21,Pro27,Arg35]-h-amylin (peptide)
peptide: K([γGlu-C20 diacid])CNTATCATQRLAEFLRHSSPNFGAIPSSTNVGSRTY-NH2
modifications: disulfide 2-7 (inferred)
notes: analogue of human amylin; also called compound 51
For B7, the “Ratio rCT/rAmylin binding” value with rat calcitonin receptor [1] amounted to 119. The “Ratio hCT/hAmylin binding” value in assay [2] was determined as 37.5. Besides, the results for the IC50 (in the assay with rat calcitonin receptor [3]; in assay [4]) were 62 nM and 0.523 nM, respectively.

B8: N^ε1-[(4S)-4-carboxy-4-[[(4S)-4-carboxy-4-(19-carboxynonadecanoylamino)butanoyl]amino]butanoyl]-[Asp14,Arg17,Pro21,Pro27,Asp35]-h-amylin (peptide)
peptide: K([γGlu-γGlu-C20 diacid])CNTATCATQRLADFLRHSSPNFGAIPSSTNVGSDTY-NH2
modifications: disulfide 2-7 (inferred)
notes: analogue of human amylin; also called compound 2
For the molecule B8, the “Ratio rCT/rAmylin binding” value in the assay with rat calcitonin receptor [1] came to 366. Also, the “Ratio hCT/hAmylin binding” value in assay [2] was found to be 47.5. Also, the IC50 turned out to be 108 nM in the assay with rat calcitonin receptor [3] and 0.295 nM in assay [4].
